Data on 3 molecules can be found in PMC10397247.

Test in all cases: two-hybrid library CCNG1;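 note: natural log of median RNA to DNA barcode read ratio; higher means stronger binding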
One assay addresses T1, 4H112-bN.
T1 chain: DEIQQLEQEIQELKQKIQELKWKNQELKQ

The target of a further assay is T2, 4H1158-bN.
T2 chain: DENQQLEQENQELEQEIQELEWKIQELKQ

In a further assay the target is T3, 4H118-bN.
T3 chain: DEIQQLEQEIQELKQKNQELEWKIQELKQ

For another assay, the target named is T4, 4H170-bN.
T4 chain: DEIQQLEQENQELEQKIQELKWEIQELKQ

The next assay deals with T5, 4H1831-bN.
T5 chain: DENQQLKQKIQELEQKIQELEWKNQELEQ

Another assay deals with T6, 4H2586-bN.
T6 chain: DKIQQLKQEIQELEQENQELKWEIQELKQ

The target in a further assay is T7, 4H2627-bN.
T7 chain: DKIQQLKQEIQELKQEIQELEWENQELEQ

The next assay deals with T8, 4H2673-bN.
T8 chain: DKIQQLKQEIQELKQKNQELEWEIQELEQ

A further assay concerns the target T9, 4H2702-bN.
T9 chain: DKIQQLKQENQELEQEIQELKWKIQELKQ

Another assay concerns the target T10, 4H3010-bN.
T10 chain: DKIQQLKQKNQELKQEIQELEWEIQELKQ

The next assay has as its target T11, 4H3112-bN.
T11 chain: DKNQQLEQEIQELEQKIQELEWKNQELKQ

The next assay deals with T12, 4H3427-bN.
T12 chain: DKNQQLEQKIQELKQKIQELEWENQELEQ

Another assay concerns the target T13, 4H346-bN.
T13 chain: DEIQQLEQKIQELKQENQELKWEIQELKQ

The target in the next assay is T14, 4H3926-bN.
T14 chain: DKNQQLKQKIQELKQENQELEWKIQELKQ

The target in another assay is T15, 4H4073-bN.
T15 chain: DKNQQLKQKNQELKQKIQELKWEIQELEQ

A further assay addresses T16, 4H457-bN.
T16 chain: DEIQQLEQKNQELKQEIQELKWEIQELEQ

The next assay concerns the target T17, 4H575-bN.
T17 chain: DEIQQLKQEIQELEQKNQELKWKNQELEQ

The target in the next assay is T18, 4H683-bN.
T18 chain: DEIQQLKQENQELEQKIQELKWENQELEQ

For another assay, the target named is T19, 4H754-bN.
T19 chain: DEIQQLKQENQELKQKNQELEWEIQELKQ

The target of another assay is T20, 4H780-bN.
T20 chain: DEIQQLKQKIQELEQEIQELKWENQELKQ

A further assay concerns the target T21, 4H797-bN.
T21 chain: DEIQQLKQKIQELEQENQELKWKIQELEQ

A further assay addresses T22, 4H855-bN.
T22 chain: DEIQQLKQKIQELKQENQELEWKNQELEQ

Another assay deals with T23, 4H918-bN.
T23 chain: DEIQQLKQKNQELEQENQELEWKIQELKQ

In another assay the target is T24, 4H953-bN.
T24 chain: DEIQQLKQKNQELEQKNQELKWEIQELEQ

For another assay, the target named is T25, 4H968-bN.
T25 chain: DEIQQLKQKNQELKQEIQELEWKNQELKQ

The target of another assay is T26, 4H182-bH.
T26 chain: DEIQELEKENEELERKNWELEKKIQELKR

For another assay, the target named is T27, 4H2134-bH.
T27 chain: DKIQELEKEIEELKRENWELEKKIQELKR

The next assay deals with T28, 4H2143-bH.
T28 chain: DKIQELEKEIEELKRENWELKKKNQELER

The next assay addresses T29, 4H2223-bH.
T29 chain: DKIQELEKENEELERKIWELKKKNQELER

The next assay addresses T30, 4H2438-bH.
T30 chain: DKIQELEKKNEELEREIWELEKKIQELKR

In another assay the target is T31, 4H2473-bH.
T31 chain: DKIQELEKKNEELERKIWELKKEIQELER

Another assay addresses T32, 4H2503-bH.
T32 chain: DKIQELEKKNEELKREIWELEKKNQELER

Another assay addresses T33, 4H2588-bH.
T33 chain: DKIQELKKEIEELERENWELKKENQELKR

Another assay addresses T34, 4H2692-bH.
T34 chain: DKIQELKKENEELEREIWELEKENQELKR

In another assay the target is T35, 4H2717-bH.
T35 chain: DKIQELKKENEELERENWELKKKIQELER

In a further assay the target is T36, 4H2839-bH.
T36 chain: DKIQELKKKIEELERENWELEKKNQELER

The next assay has as its target T37, 4H2915-bH.
T37 chain: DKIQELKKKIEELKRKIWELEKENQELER

The next assay addresses T38, 4H3057-bH.
T38 chain: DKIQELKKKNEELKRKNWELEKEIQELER

In another assay the target is T39, 4H319-bH.
T39 chain: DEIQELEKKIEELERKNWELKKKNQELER

Another assay deals with T40, 4H3277-bH.
T40 chain: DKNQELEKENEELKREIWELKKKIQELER

Another assay deals with T41, 4H348-bH.
T41 chain: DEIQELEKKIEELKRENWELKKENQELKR

The target in the next assay is T42, 4H40-bH.
T42 chain: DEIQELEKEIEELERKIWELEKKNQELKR

The target of the next assay is T43, 4H477-bH.
T43 chain: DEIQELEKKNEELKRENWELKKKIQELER

For a further assay, the target named is T44, 4H492-bH.
T44 chain: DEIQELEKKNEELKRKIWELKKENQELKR

The target of another assay is T45, 4H741-bH.
T45 chain: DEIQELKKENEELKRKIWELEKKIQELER

The next assay has as its target T46, 4H1359-bA.
T46 chain: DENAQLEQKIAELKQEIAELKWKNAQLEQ

A further assay deals with T47, 4H1393-bA.
T47 chain: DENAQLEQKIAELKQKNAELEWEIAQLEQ

For a further assay, the target named is T48, 4H1449-bA.
T48 chain: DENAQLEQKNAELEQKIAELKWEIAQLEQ

In the next assay the target is T49, 4H1629-bA.
T49 chain: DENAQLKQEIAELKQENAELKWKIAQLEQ

The target of another assay is T50, 4H1710-bA.
T50 chain: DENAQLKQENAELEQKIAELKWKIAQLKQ

In another assay the target is T51, 4H1804-bA.
T51 chain: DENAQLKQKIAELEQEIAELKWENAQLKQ

In a further assay the target is T52, 4H1985-bA.
T52 chain: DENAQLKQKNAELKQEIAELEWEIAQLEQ

For the next assay, the target named is T53, 4H3129-bA.
T53 chain: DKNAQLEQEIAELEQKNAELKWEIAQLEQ

Another assay deals with T54, 4H3172-bA.
T54 chain: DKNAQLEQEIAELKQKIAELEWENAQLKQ

In a further assay the target is T55, 4H3414-bA.
T55 chain: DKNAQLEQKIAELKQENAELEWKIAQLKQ

Another assay addresses T56, 4H3631-bA.
T56 chain: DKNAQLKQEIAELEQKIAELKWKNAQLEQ

Another assay deals with T57, 4H3638-bA.
T57 chain: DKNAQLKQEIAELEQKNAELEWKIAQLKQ

Another assay addresses T58, 4H3817-bA.
T58 chain: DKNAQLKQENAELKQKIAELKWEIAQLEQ

In another assay the target is T59, 4H3974-bA.
T59 chain: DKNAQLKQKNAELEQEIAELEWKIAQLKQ

Another assay has as its target T60, 4H570-bA.
T60 chain: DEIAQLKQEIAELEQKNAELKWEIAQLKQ

A further assay addresses T61, 4H584-bA.
T61 chain: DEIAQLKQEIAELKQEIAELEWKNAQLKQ

Another assay deals with T62, 4H619-bA.
T62 chain: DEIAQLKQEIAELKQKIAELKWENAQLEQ

Another assay addresses T63, 4H850-bA.
T63 chain: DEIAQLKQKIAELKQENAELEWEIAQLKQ

The target in a further assay is T64, 4H906-bA.
T64 chain: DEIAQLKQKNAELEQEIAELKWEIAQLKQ

Regarding DEIQQLEQEIQELKQKIQELKWKNQELKQ [4H112-bN], the interaction score with 4H112-bN was 1.46; in the assay with 4H1158-bN, 0.877; with 4H118-bN, -0.511; with 4H170-bN, -0.245; with 4H1831-bN, 0.348; in the assay with 4H2586-bN, -1.21. The interaction score in the assay with 4H2627-bN was 1.22; with 4H2673-bN, 0.592; with 4H2702-bN it was 0.834; with 4H3010-bN, 1.25; with 4H3112-bN, 1.44; with 4H3427-bN, 1.06. In addition, the interaction score was -0.486 in the assay with 4H346-bN; -1.67 in the assay with 4H3926-bN; 1.25 with 4H4073-bN; 0.723 with 4H457-bN; -0.471 with 4H575-bN; -0.968 with 4H683-bN. Besides, the interaction score in the assay with 4H754-bN is -0.189; in the assay with 4H780-bN, 0.755; with 4H797-bN, -1.01; with 4H855-bN, -0.582; in the assay with 4H918-bN it was -0.456; in the assay with 4H953-bN, -0.805. Further, in the assay with 4H968-bN, the interaction score stood at 0.452.
Take DEIQELEKENEELERKNWELEKKIQELKR [4H182-bH]: the interaction score with 4H182-bH is 0.517; with 4H2134-bH, 0.462; with 4H2143-bH it was 0.14; with 4H2223-bH, 0.341; with 4H2438-bH it was -0.311; with 4H2473-bH, 0.11. Moreover, the interaction score with 4H2503-bH was 0.0255; in the assay with 4H2588-bH, -0.809; in the assay with 4H2692-bH it was 1.16; with 4H2717-bH, -0.508; with 4H2839-bH, -0.281; with 4H2915-bH it was 0.801. The interaction score with 4H3057-bH is 0.511; with 4H319-bH, 0.27; with 4H3277-bH, -0.523; with 4H348-bH, -0.493; with 4H40-bH, -0.335; with 4H477-bH, -0.331. In addition, the interaction score is -0.775 in the assay with 4H492-bH and -0.207 in the assay with 4H741-bH.
Turning to DENAQLEQKIAELKQEIAELKWKNAQLEQ [4H1359-bA], the interaction score with 4H1359-bA was 0.162; with 4H1393-bA, -0.644; in the assay with 4H1449-bA, -0.804; with 4H1629-bA, -0.732; with 4H1710-bA, -0.54; in the assay with 4H1804-bA, -0.948. The interaction score was 0.768 with 4H1985-bA; -0.77 with 4H3129-bA; -0.287 in the assay with 4H3172-bA; -0.665 with 4H3414-bA; 1.41 with 4H3631-bA; -0.492 with 4H3638-bA. For the same molecule, the interaction score was -0.524 with 4H3817-bA; -0.0513 with 4H3974-bA; -0.609 with 4H570-bA; -0.341 with 4H584-bA; -0.844 with 4H619-bA; -0.751 in the assay with 4H850-bA. For the same molecule, the interaction score in the assay with 4H906-bA was -0.601.
